In PMC2874997 (Nucleic Acids Research, 2010):
Like-named read-outs stand apart in the source and are kept apart here.

Key:
DnaB (native) [1] = biological target: T1, DnaB (native) (Bacillus subtilis, UniProt P07908 1-472); assay: EMSA
T1 sequence: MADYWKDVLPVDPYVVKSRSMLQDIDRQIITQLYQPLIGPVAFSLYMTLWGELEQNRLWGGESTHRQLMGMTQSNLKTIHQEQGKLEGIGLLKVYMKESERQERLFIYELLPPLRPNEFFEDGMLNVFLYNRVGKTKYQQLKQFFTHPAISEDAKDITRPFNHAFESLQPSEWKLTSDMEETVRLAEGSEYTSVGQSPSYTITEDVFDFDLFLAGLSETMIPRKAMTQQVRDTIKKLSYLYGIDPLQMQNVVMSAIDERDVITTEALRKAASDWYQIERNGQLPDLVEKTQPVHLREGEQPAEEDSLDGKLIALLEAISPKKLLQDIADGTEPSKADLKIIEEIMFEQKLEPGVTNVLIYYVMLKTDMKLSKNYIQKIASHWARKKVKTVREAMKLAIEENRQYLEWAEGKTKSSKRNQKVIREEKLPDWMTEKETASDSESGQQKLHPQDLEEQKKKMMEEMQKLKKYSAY

DnaBN, DnaB(1-300) [2] = biological target: T2, DnaBN, DnaB(1-300) (Bacillus subtilis, UniProt P07908 1-300); assay: EMSA
T2 sequence: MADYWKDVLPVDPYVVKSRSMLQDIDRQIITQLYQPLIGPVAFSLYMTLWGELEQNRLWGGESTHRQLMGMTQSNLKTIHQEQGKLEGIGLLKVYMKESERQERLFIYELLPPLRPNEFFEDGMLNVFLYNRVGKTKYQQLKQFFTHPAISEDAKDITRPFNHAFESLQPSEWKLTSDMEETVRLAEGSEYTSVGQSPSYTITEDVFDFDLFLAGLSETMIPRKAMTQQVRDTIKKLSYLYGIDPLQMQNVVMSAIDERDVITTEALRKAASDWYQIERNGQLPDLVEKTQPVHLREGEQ

AUC [3] = biological target: the molecule itself; assay: AUC
AUC [4] = biological target: the molecule itself; assay: AUC; remark: listed apart in the source
DnaBN, DnaB(1-300) [5] = biological target: T2, DnaBN, DnaB(1-300); assay: EMSA; remark: listed apart in the source
DnaB (native) [6] = biological target: T1, DnaB (native); assay: EMSA; remark: listed apart in the source
DnaBN, DnaB(1-300) [7] = biological target: T2, DnaBN, DnaB(1-300); assay: EMSA; remark: listed apart in the source

B1: dT45 (ssDNA)
DNA: TTTTTTTTTTTTTTTTTTTTTTTTTTTTTTTTTTTTTTTTTTTTT
**Q.** Does B1 bind (DnaB (native) [1])?
**A.** Result: binds

**Q.** Does B1 bind (DnaBN, DnaB(1-300) [2])?
**A.** Result: binds

B2: DnaBN, DnaB residues 1-300 (N-terminal domain plus the central domain) (domain or fragment, B. subtilis, UniProt P07908 1-300, looked up)
chain: MADYWKDVLPVDPYVVKSRSMLQDIDRQIITQLYQPLIGPVAFSLYMTLWGELEQNRLWGGESTHRQLMGMTQSNLKTIHQEQGKLEGIGLLKVYMKESERQERLFIYELLPPLRPNEFFEDGMLNVFLYNRVGKTKYQQLKQFFTHPAISEDAKDITRPFNHAFESLQPSEWKLTSDMEETVRLAEGSEYTSVGQSPSYTITEDVFDFDLFLAGLSETMIPRKAMTQQVRDTIKKLSYLYGIDPLQMQNVVMSAIDERDVITTEALRKAASDWYQIERNGQLPDLVEKTQPVHLREGEQ
**Q.** What does the source list for B2?
**A.** Kd (AUC [3]): 500 nM; stoichiometry N (AUC [3]): 4

B3: DnaB(1-428), C-terminally truncated DnaB (domain or fragment, B. subtilis, UniProt P07908 1-428, looked up)
chain: MADYWKDVLPVDPYVVKSRSMLQDIDRQIITQLYQPLIGPVAFSLYMTLWGELEQNRLWGGESTHRQLMGMTQSNLKTIHQEQGKLEGIGLLKVYMKESERQERLFIYELLPPLRPNEFFEDGMLNVFLYNRVGKTKYQQLKQFFTHPAISEDAKDITRPFNHAFESLQPSEWKLTSDMEETVRLAEGSEYTSVGQSPSYTITEDVFDFDLFLAGLSETMIPRKAMTQQVRDTIKKLSYLYGIDPLQMQNVVMSAIDERDVITTEALRKAASDWYQIERNGQLPDLVEKTQPVHLREGEQPAEEDSLDGKLIALLEAISPKKLLQDIADGTEPSKADLKIIEEIMFEQKLEPGVTNVLIYYVMLKTDMKLSKNYIQKIASHWARKKVKTVREAMKLAIEENRQYLEWAEGKTKSSKRNQKVIREEKLP
**Q.** B3 was tested. Which “stoichiometry N” value (AUC [4]) did it give?
**A.** Its value is 4.

B4: dT90 (ssDNA)
DNA: TTTTTTTTTTTTTTTTTTTTTTTTTTTTTTTTTTTTTTTTTTTTTTTTTTTTTTTTTTTTTTTTTTTTTTTTTTTTTTTTTTTTTTTTTT
**Q.** Does B4 bind (DnaBN, DnaB(1-300) [5])?
**A.** Result: binds

**Q.** Does B4 bind (DnaB (native) [6])?
**A.** Result: binds

B5: dT135 (ssDNA)
DNA: TTTTTTTTTTTTTTTTTTTTTTTTTTTTTTTTTTTTTTTTTTTTTTTTTTTTTTTTTTTTTTTTTTTTTTTTTTTTTTTTTTTTTTTTTTTTTTTTTTTTTTTTTTTTTTTTTTTTTTTTTTTTTTTTTTTTTTT
**Q.** Which results are given for B5?
**A.** binding result (DnaBN, DnaB(1-300) [7]): binds; binding result (DnaB (native) [6]): binds

B6: DnaB(1-365), C-terminally truncated DnaB (domain or fragment, B. subtilis, UniProt P07908 1-365, looked up)
chain: MADYWKDVLPVDPYVVKSRSMLQDIDRQIITQLYQPLIGPVAFSLYMTLWGELEQNRLWGGESTHRQLMGMTQSNLKTIHQEQGKLEGIGLLKVYMKESERQERLFIYELLPPLRPNEFFEDGMLNVFLYNRVGKTKYQQLKQFFTHPAISEDAKDITRPFNHAFESLQPSEWKLTSDMEETVRLAEGSEYTSVGQSPSYTITEDVFDFDLFLAGLSETMIPRKAMTQQVRDTIKKLSYLYGIDPLQMQNVVMSAIDERDVITTEALRKAASDWYQIERNGQLPDLVEKTQPVHLREGEQPAEEDSLDGKLIALLEAISPKKLLQDIADGTEPSKADLKIIEEIMFEQKLEPGVTNVLIYYVMLK
**Q.** Which “stoichiometry N” value (AUC [4]) does the source give for B6 here?
**A.** Its value is 4.
